Several values for one entry are separate records, joined by “and”; a condition that tells them apart may be missing. Equal values may be shown once.
Key:
[1] = target: T1, human complement component 5 (C5) (Homo sapiens, UniProt P01031); assay: cell-based or functional assay
[2] = target: T1, human complement component 5 (C5); assay: SEC-MALS; antibody (700 nM) plus C5 (400 nM) incubated about 30 min at room temperature in PBS; Bio SEC-5 1000 A column run in PBS; no eculizumab; conditions: both partners purified

B1: mAb TPP-2799 (antibody, V domains shown)
VH: QVQLVESGGGLVQPGRSLRLSCAASGFTVHSSYYMAWVRQAPGKGLEWVGAIFTGSGAEYKAEWAKGRVTISKDTSKNQVVLTMTNMDPVDTATYYCASDAGYDYPTHAMHYWGQGTLVTVSS
VL: DIQMTQSPSSLSASVGDRVTITCRASQGISSSLAWYQQKPGKAPKLLIYGASETESGVPSRFSGSGSGTDFTLTISSLQPEDFATYYCQNTKVGSSYGNTFGGGTKVEIK
notes: heavy chain of Chugai mAb RO7112689 (crovalimab) as described in CAS Registry Number 1917321-26-6; light chain of Chugai mAb RO7112689 (crovalimab) as described in CAS Registry Number 1917321-26-6; MALS mass alone 154 kDa; also called RO7112689; source: Expi293, transiently expressed, purified (MabSelect SuRe); copies: 2 + 2
IC50 of inhibition of classical-pathway hemolysis of antibody-sensitized chicken red blood cells in 20% (v/v) human serum [1]: 30 nM
stoichiometry N [2]: 1 C5 per TPP-2799 and 2 C5 per TPP-2799
